Here are results for twelve molecules from patent publication US20140308287A1 (SEA LANE BIOTECHNOLOGIES, published 2014).

For test [1], the target named is T1, human ErbB3-Fc (R&D Systems) (human, UniProt P21860 20-643).
T1 construct: Bought protein; also called wild-type ErbB3-Fc fusion; immobilized ErbB3; not shown: Fc part of the bought fusion protein; not described
The experiment in a line: ELISA on ErbB3-Fc (Example 42); format of the parent not stated, the variants were soluble monovalent Sabs.

For test [2], the target named is T1, human ErbB3-Fc (R&D Systems). The experiment in a line: ELISA on ErbB3-Fc, soluble monovalent Sab (Example 42).
Test [3] has the same target. The experiment in a line: ELISA on ErbB3-Fc (Example 42); format of the parent not stated, the variants were soluble monovalent Sabs. The source holds these as a separate data set.
Test [4] shares this target. The experiment in a line: ELISA on plate-coated human ErbB3-Fc with 1.85 nM NRG1-beta 1 extracellular domain added before the SBP (+ NRG), detection biotinylated anti-VpreB (Example 43); axis labelled log [Sab] nM. From the text: (§1) The resulting bound SgGs were detected using a biotinylated anti-VpreB, followed by streptavidin HRP colorimetric detection.
For test [5] the target is unchanged. The experiment in a line: ELISA on plate-coated human ErbB3-Fc without NRG, detection biotinylated anti-VpreB and streptavidin HRP (Example 43); axis labelled log [Sab] nM, text speaks of SgGs.
Text: as §1

In test [6] the target is T2, human ErbB3 expressed on the surface of cells (BxPC-3 and other human tumor cell lines) (human, UniProt P21860 20-1342).
T2 construct: SKBR3, PathHunter reporter cells in functional assays; The leader 1-19 is not part of the mature protein; also called cell surface ErbB3; cell surface receptor
The experiment in a line: flow cytometry on BxPC-3 cells, geometric mean fluorescence intensity. Here is the method: (§2) Briefly, BxPC-3 cells were first dissociated using 0.25% trypsin, 0.2% EDTA, washed in cold PBS, 1% BSA, and then resuspended at 3×10⁶ cells/ml. SgGs (described above) were added at the indicated concentrations in Staining Buffer (Becton Dickinson) and incubated at 4 degrees C. for 1 hour. Next the cells were washed in stain buffer and resuspended with 1:133 diluted biotinylated goat anti-human IgG (Southern Biotech #2040-08) and incubated at 4 degrees C. for 1 hour. Cells were then washed in stain buffer and resuspended with Alexa488 conjugated streptavidin (Invitrogen #S11223) and incubated at 4 degrees C. for 1 hour. One microliter of the vital stain 7AAD (Invitrogen #A1310) was added during the last 15 minutes of incubation. Cells were washed with stain buffer and analyzed on a flow cytometer.
(§3) Thereafter only signals arising from this gated population were analyzed. Geometric mean fluorescence intensity for cells stained using the indicated concentrations of SBPs were determined using FLOWJO analysis software and EC50s were calculated using Graphpad Prism.

Test [7] addresses T1, human ErbB3-Fc (R&D Systems). The experiment in a line: ELISA, SgG on plate-coated human ErbB3-Fc. Here is the method:
(§4) Binding was detected using a biotinylated antibody that specifically recognizes VpreB, followed by streptavidin HRP. Detection used a colorimetric HRP substrate. Data was analyzed via using GraphPad Prism.

Test [8] concerns the target T2, human ErbB3 expressed on the surface of …. The test can be described thus: flow cytometry on BxPC-3 cells. Here is the method: as §2, §3
For test [9], the target named is T1, human ErbB3-Fc (R&D Systems). The test can be described thus: ELISA on plate-coated human ErbB3-Fc, detection biotinylated anti-VpreB and streptavidin HRP (Example 52). From the text:
(§5) ELISA plates were coated with human ErbB3-Fc, EGFR-Fc (ErbB1) or ErbB2-Fc. Various concentrations of the indicated anti-ErbB3 SBPs were then allowed to bind to the coated wells. Binding was detected using a biotinylated antibody that specifically recognizes VpreB, followed by streptavidin HRP. Detection used a colorimetric HRP substrate.

For test [10] the target is unchanged. The experiment in a line: ELISA, SgG on plate-coated human ErbB3-Fc, anti-VpreB detection. As for the experimental part: as §4
Another test has as its target T3, EGFR-Fc (ErbB1) (human, UniProt P00533 25-645).
T3 construct: The sentence reads 'human ErbB3-Fc, EGFR-Fc (ErbB1) or ErbB2-Fc'; 'human' is read as applying to all three; not shown: Fc part; not described
The experiment in a line: ELISA on plate-coated EGFR-Fc (ErbB1), detection biotinylated anti-VpreB (Example 52).
Text: as §5

For a further test, the target named is T4, ErbB2-Fc (human, UniProt P04626 23-652).
T4 construct: The sentence reads 'human ErbB3-Fc, EGFR-Fc (ErbB1) or ErbB2-Fc'; 'human' is read as applying to all three; not shown: Fc part; not described
The experiment in a line: ELISA on plate-coated ErbB2-Fc, detection biotinylated anti-VpreB (Example 52).
Text: as §5

Test [11] addresses T1, human ErbB3-Fc (R&D Systems). The test can be described thus: ELISA, inhibition of binding of NRG1-beta 1 ECD (0.26 ug/ml) to plate-coated human ErbB3-Fc. Here is the method:
ELISA plates were coated with human ErbB3-Fc. Various concentrations of the indicated anti-ErbB3 SBPs were then allowed to bind to the coated wells. […] Detection used a colorimetric HRP substrate.
Data was analyzed using GraphPad Prism.

Test [12] addresses T5, murine ErbB3-Fc (R&D Systems) (mouse, UniProt Q61526 20-641).
T5 construct: Bought protein; also called mouse ErbB3; not shown: Fc part of the bought fusion protein; not described
The test can be described thus: ELISA, SgG on plate-coated murine ErbB3-Fc, anti-VpreB detection. As for the experimental part: (§6) Binding was detected using a biotinylated antibody that recognizes VpreB, followed by strepatvidin HRP. Detection used a colorimetric HRP substrate. Data was analyzed via using GraphPad Prism.

For test [13], the target named is T5, murine ErbB3-Fc (R&D Systems). The experiment in a line: ELISA, SgG on plate-coated murine ErbB3-Fc. As for the experimental part: as §6

Where a chain is given by its changes, count along the chain named.

T5 sequence (Q61526 20-641 limits assumed): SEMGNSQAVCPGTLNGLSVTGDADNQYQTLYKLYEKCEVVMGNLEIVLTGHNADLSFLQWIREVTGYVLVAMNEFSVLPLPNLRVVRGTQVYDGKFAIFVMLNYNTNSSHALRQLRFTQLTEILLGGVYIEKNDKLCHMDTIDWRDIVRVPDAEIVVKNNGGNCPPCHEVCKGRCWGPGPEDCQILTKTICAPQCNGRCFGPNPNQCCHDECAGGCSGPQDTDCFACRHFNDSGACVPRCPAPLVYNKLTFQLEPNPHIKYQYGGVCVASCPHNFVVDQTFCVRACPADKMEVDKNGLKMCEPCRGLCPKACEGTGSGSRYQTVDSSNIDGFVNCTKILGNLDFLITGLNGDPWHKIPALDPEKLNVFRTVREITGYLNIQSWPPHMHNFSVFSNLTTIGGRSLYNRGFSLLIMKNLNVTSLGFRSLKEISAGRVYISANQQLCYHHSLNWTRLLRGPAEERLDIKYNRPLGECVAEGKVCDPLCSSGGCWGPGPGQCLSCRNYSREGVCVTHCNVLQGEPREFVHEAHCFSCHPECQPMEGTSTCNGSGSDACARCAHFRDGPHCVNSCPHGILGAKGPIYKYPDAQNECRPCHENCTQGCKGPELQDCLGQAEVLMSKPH

B1: 2817-C01 (Parent) (other)
VH: EVQLLESGGGLVQPGGSLRLSCAASGFTFSTYAMNWVRQAPGKGLEWVALISSGGSYKYYADSVKGRFTISRDNSKNTLYLQMNSLRAEDTAVYYCAKDNFILLNSWFDYWGQGTLVTVSS
surrogate light: QPVLHQPPAMSSALGTTIRLTCTLRNDHDIGVYSVYWYQQRPGHPPRFLLRYFSQSDKSQGPQVPPRFSGSKDVARNRGYLSISELQPEDEAMYYCAMGARSSVTHVFGSGTQLTVLSQPKATPSVTLFPPSSEELQANKATLVCLMNDFYPGILTVTWKADGTPITQGVEMTTPSKQSNNKYAASSYLSLTPEQWRSRRSYSCQVMHEGSTVEKTVAPAECS
In the case of B1, the EC50 in [1] is 0.055 nM.

B2: 3000-C08 (other)
VH: EVQLLESGGGLVQPGGSLRLSCAASGFTFSSYWMHWVRQAPGKGLEWVAVISNNGRYKYYADSVKGRFTISRDNSKNTLYLQMNSLRAEDTAVYYCAKDNEKNLYTWLDYWGQGTLVTVSS
surrogate light: B1 surrogate light
notes: copies: 1 + 1
The molecule B2 gave an EC50 in test [2] of 0.182 nM.

B3: 2716-F05 (Parent) (other)
VH: B2 VH with S31N, V50L, N53G, N54G, R56G, Y57N, K58T
light: B1 surrogate light
On to B3, for which the EC50 in [3] was determined as 0.22 nM.

B4: 3000-B03 (other)
VH: B2 VH with S31N, V50L, R56T, K58T
light: B1 surrogate light
notes: copies: 1 + 1
Regarding B4, it took 0.179 nM to reach a half-maximal effect in test [2] (EC50).

B5: 2817-C01 surroglobulin (SgG) (other)
VH: B1 VH
light: B1 surrogate light
notes: also called anti-ErbB3 SgG
As to B5, the “EC50 (read off the curve)” value in test [4] is approximately 0.3 nM; in [5], approximately 0.2 nM; in [9] it was approximately 0.05 nM. The EC50 in test [6] stood at 0.12 nM; in test [7] it was 0.041 nM; in test [8], 0.138 nM; in test [10] it was 0.04 nM. Further, the binding result in the test with EGFR-Fc (ErbB1) and with ErbB2-Fc was “no binding (tested: 1000 nM)” each time. The IC50 in [11] worked out at 0.99 nM.

B6: 2716-F05 surroglobulin (SgG) (other)
VH: B2 VH with S31N, V50L, N53G, N54G, R56G, Y57N, K58T
light: B1 surrogate light
notes: also called anti-ErbB3 SgG
For B6, the “EC50 (read off the curve)” value was approximately 0.7 nM in test [4], approximately 0.5 nM in [5] and approximately 0.08 nM in [9]. Moreover, the EC50 in test [6] worked out at 0.04 nM; in test [12], 0.06 nM; in test [7], 0.049 nM; in [8], 0.04 nM; in test [13] it was 0.095 nM; in test [10] it was 0.05 nM. Further, the binding result in the test with EGFR-Fc (ErbB1) and in the test with ErbB2-Fc was “no binding (tested: 1000 nM)” each time. For the same molecule, in test [11], the IC50 came to 0.52 nM.

B7: 3000-F09 (other)
VH: B2 VH with V50L, N53S, N54S, R56G, Y57I, K58T
surrogate light: B1 surrogate light
In turn, B7 returned an EC50 in [2] of 0.118 nM.

B8: 3000-D07 (other)
VH: B2 VH with A49S, V50L, N53A, N54S, R56S, Y57I
light: B1 surrogate light
notes: copies: 1 + 1
B8 had an EC50 in [2] of 0.152 nM.

B9: 3000-H03 (other)
VH: B2 VH with S31D, A49S, V50L, N54G, R56G, K58T
surrogate light: B1 surrogate light
The molecule B9 registered an EC50 in test [2] of 0.109 nM.

B10: 3000-B06 (other)
VH: B2 VH with V50L, R56A, K58I
light: B1 surrogate light
In turn, B10 showed an EC50 in test [2] of 0.084 nM.

B11: 3000-E07 (other)
VH: B2 VH with S31N, V50L, N53G, N54G, R56G, Y57N, K58I
light: B1 surrogate light
notes: copies: 1 + 1
Take B11: in test [2], a half-maximal response (EC50) required 0.121 nM.

B12: 3000-E01 (other)
VH: B2 VH with V50L, R56A, K58T
surrogate light: B1 surrogate light
On to B12, for which the EC50 in [2] came to 0.105 nM.
